Reference: paper PMC7700883

What was measured:
[1] = biological target: ubiquitin aminomethylcoumarin (UniProt P0CG48)
[2] = biological target: GST-tagged ChlaDUB1_(130–401) (C345A) (Chlamydia trachomatis L2) (UniProt B0B9A0); assay: BLI
[3] = biological target: GST-tagged ChlaDUB2_(58–339) (C282A) (Chlamydia trachomatis L2) (UniProt B0B999); assay: BLI

Substance	attenuation of Ub-AMC hydrolysis activity against wild type ChlaDUB2(58-339) [1] [%]	Kd [2] [µM]	Kd [3] [µM]
ChlaDUB2_(58–339) W92A (from UniProt B0B999 58-339) (domain or fragment)	50	–	–
Lys63-linked diubiquitin (from UniProt P0CG48 1-76) (complex)	–	117	88.9
